Data as given in paper PMC6525205, “Structure of the human frataxin-bound iron-sulfur cluster assembly complex provides insight into its activation mechanism” (Nature Communications, 2019).

These binders were tested against T1, NFS1-ISD11-ACP-ISCU complex with biotinylated ISCU (SDAUb) (human | E. coli, UniProt Q9Y697 56-457; Q9HD34 1-91; P0A6A8 1-74; Q9H1K1 35-167, pyridoxal 5′-phosphate covalently-linked to Lys258 | 4′-phosphopantetheine (4′-PP) acyl-chain attached to Ser37 | biotin (site and method not stated)) (assay: BLI; SDAUb complex (biotinylated ISCU) at 0.1 mg/mL loaded on streptavidin sensors; FXN 500 µM to 1 nM in solution; 25 °C; 50 mM HEPES pH 7.5, 200 mM NaCl, 5% glycerol, 2 mM TCEP, 5 mM DTT, 0.5 mg/mL BSA; Kd from response vs. [FXN], one site-specific binding fit). Conditions: both partners purified.
T1 construct: NFS1 cysteine desulfurase, human, Δ1-55; C-terminal residue printed as His457; ISD11/LYRM4, human; E. coli acyl carrier protein (ACPec), endogenous in the expression host, co-purified; ISCU scaffold protein, human, isoform 1, Δ1-34; the related SDAUF complex holds two copies of each chain; source: purified SDA (E. coli) combined with biotinylated ISCU (E. coli) and isolated on Superdex 200 …
T1 sequence (Q9Y697 56-457, chain 1 of 4): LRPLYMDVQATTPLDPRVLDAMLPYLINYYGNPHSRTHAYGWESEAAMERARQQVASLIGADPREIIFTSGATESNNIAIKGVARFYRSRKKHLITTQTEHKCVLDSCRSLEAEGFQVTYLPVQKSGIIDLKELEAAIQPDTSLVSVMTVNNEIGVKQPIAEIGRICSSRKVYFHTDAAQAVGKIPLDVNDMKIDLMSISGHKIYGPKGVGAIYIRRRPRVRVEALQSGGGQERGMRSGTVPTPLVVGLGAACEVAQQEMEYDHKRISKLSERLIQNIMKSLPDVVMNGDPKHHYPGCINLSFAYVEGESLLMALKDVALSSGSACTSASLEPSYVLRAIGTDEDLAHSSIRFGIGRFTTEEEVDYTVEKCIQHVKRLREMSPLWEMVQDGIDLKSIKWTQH
T1 sequence (Q9HD34 whole entry, chain 2 of 4, canonical isoform): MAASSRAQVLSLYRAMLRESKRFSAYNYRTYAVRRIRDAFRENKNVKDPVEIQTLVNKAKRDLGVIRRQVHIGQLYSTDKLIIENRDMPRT
T1 sequence (P0A6A8 1-74, chain 3 of 4): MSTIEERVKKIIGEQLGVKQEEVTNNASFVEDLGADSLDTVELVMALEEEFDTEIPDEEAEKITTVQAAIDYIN
T1 sequence (Q9H1K1 35-167, chain 4 of 4): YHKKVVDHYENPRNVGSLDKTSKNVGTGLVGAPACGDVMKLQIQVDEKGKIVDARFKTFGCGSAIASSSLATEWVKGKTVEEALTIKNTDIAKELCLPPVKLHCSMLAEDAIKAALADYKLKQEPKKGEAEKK

Row | Kd | Binder
1 | 3.32 µM | human frataxin (FXN) (Δ1-80), wild-type (domain or fragment, UniProt Q16595 81-210, looked up, frataxin (FXN), human, Δ1-80; Cloned into pCDF-LIC-Bsa4; Two copies of FXN stand in the SDAUF heterodecamer; also called FXN(WT); WT; source: E. coli BL21(DE3)-R3-pRARE2, purified (Ni Sepharose, Superdex S75, TEV, reverse Ni); for cryo-EM co-expressed with the His-ISD11/NFS1/ISCU plasmid and purified as the SDAUF complex) SGTLGHPGSLDETTYERLAEETLDSLAEFFEDLADKPYTFEDYDVSFGSGVLTVKLGGDLGTYVINKQTPNKQIWLSSPSSGPKRYDWTGKNWVYSHDGVSLHELLAAELTKALKTKLDLSSLAYSGKDA
2 | 14.4 µM | FXN(D124A) (domain or fragment, human, UniProt Q16595 81-210, looked up, frataxin (FXN), human, Δ1-80, site-directed variant; Variant of m1) SGTLGHPGSLDETTYERLAEETLDSLAEFFEDLADKPYTFEDYAVSFGSGVLTVKLGGDLGTYVINKQTPNKQIWLSSPSSGPKRYDWTGKNWVYSHDGVSLHELLAAELTKALKTKLDLSSLAYSGKDA
3 | 9.45 µM | FXN(N151A) (domain or fragment, human, UniProt Q16595 81-210, looked up, frataxin (FXN), human, Δ1-80, site-directed variant; Variant of m1) SGTLGHPGSLDETTYERLAEETLDSLAEFFEDLADKPYTFEDYDVSFGSGVLTVKLGGDLGTYVINKQTPAKQIWLSSPSSGPKRYDWTGKNWVYSHDGVSLHELLAAELTKALKTKLDLSSLAYSGKDA
4 | 134 µM | FXN(R165C) (domain or fragment, human, UniProt Q16595 81-210, looked up, frataxin (FXN), human, Δ1-80, clinical variant of Friedreich's ataxia; Variant of m1) SGTLGHPGSLDETTYERLAEETLDSLAEFFEDLADKPYTFEDYDVSFGSGVLTVKLGGDLGTYVINKQTPNKQIWLSSPSSGPKCYDWTGKNWVYSHDGVSLHELLAAELTKALKTKLDLSSLAYSGKDA
5 | 38.5 µM | FXN(P163G) (domain or fragment, human, UniProt Q16595 81-210, looked up, frataxin (FXN), human, Δ1-80, site-directed variant (Gly is the bacterial equivalent residue); Variant of m1) SGTLGHPGSLDETTYERLAEETLDSLAEFFEDLADKPYTFEDYDVSFGSGVLTVKLGGDLGTYVINKQTPNKQIWLSSPSSGGKRYDWTGKNWVYSHDGVSLHELLAAELTKALKTKLDLSSLAYSGKDA
6 | 253 µM | FXN(W155R) (domain or fragment, human, UniProt Q16595 81-210, looked up, frataxin (FXN), human, Δ1-80, clinical variant of Friedreich's ataxia; Variant of m1) SGTLGHPGSLDETTYERLAEETLDSLAEFFEDLADKPYTFEDYDVSFGSGVLTVKLGGDLGTYVINKQTPNKQIRLSSPSSGPKRYDWTGKNWVYSHDGVSLHELLAAELTKALKTKLDLSSLAYSGKDA
7 | 177 µM | FXN(N146K) (domain or fragment, human, UniProt Q16595 81-210, looked up, frataxin (FXN), human, Δ1-80, clinical variant of Friedreich's ataxia; Variant of m1) SGTLGHPGSLDETTYERLAEETLDSLAEFFEDLADKPYTFEDYDVSFGSGVLTVKLGGDLGTYVIKKQTPNKQIWLSSPSSGPKRYDWTGKNWVYSHDGVSLHELLAAELTKALKTKLDLSSLAYSGKDA
